{"source": "paper PMC10934500", "about": "“Exploring the Anti-Diabetic Potential of Quercetagitrin through Dual Inhibition of PTPN6 and PTPN9” (Nutrients, 2024)", "test_system": "Cc1cc(=O)oc2c(F)c(OP(=O)(O)O)c(F)cc12", "assay": "Michaelis-Menten kinetics (KM) with purified enzyme, fluorescence", "format": "biochemical, Homo sapiens", "data": [{"substance": "PTPN6 (Homo sapiens)", "values": [{"measurement": "Km", "result": 187.5, "unit": "µM"}, {"measurement": "Vmax", "result": 10.8, "unit": "µM/min"}, {"measurement": "kcat", "result": 30, "unit": "s⁻¹"}, {"measurement": "kcat/Km", "result": 162000, "unit": "M⁻¹ s⁻¹"}]}]}
